Patent publication US6703362 (CYTOGEN, dated 2004)

Tests used:
[1] = molecular target: T1, HPT1 receptor domain (human intestinal peptide-associated transporter HPT1, amino acid residues 29-273), … (human, UniProt Q12864 29-273); assay: phage ELISA, plate coated with HPT1 domain
T1 construct: purified under denaturing conditions; also called recombinant HPT1; not shown: poly-histidine tag (pET vector) at the NH2-terminal end
T1 sequence: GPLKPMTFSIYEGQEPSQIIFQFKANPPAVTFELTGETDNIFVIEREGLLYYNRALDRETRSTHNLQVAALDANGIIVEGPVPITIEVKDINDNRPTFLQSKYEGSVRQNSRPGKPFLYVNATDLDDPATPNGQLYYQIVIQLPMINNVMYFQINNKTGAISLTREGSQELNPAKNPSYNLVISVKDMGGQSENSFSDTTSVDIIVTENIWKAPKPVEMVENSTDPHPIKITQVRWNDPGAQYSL
Description: (§1) 6.6. Receptor ELISA Procedure 96 well plates were coated overnight with GIT receptor, BSA and, optionally, IDE (insulin degrading enzyme, an irrelevant His-fusion protein)or hTF. The plates were blocked for one hour with 0.5% BSA-PBS. After clarification, the amplified phage were diluted 1:100 in […] plus 0.05% Tween 20 in PBS and added to the plates. Following incubation of the plates on a rotator for 1 to 2 hours, the plates were washed 5 times with 1% BSA plus 0.05% Tween 20 in PBS. […] After the plates were washed 5 times, as described above, TMB substrate was added to the wells. The plates were read at 650 nm absorbance.

[2] = molecular target: T1, HPT1 receptor domain (human intestinal …); assay: phage ELISA, OD on HPT1 over OD on BSA
Description: as §1

[3] = molecular target: T2, D2H receptor domain (human D2H transporter, amino acid residues 387-685), His-tag fusion protein (human, UniProt Q07837 387-685); assay: phage ELISA, plate coated with D2H domain
T2 construct: purified under denaturing conditions; also called recombinant D2H; not shown: poly-histidine tag (pET vector) at the NH2-terminal end
T2 sequence: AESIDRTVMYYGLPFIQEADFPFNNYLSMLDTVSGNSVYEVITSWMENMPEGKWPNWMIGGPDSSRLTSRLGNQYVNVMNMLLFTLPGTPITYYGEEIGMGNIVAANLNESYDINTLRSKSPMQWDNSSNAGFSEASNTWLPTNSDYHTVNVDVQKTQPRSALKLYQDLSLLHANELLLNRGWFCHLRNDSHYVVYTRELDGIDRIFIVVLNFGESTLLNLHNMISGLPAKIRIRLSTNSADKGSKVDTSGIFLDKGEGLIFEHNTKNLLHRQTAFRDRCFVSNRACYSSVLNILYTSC
Description: as §1

[4] = molecular target: T2, D2H receptor domain (human D2H …); assay: phage ELISA, OD on D2H over OD on BSA
Description: as §1

[5] = molecular target: T3, hPEPT1 receptor domain (human PEPT1, amino acid residues 391-571), His-tag fusion protein (human, UniProt P46059 391-571); assay: phage ELISA, OD on hPEPT1 over OD on BSA
T3 construct: purified under denaturing conditions; also called recombinant hPEPT1; not shown: poly-histidine tag (pET vector) at the NH2-terminal end
T3 sequence: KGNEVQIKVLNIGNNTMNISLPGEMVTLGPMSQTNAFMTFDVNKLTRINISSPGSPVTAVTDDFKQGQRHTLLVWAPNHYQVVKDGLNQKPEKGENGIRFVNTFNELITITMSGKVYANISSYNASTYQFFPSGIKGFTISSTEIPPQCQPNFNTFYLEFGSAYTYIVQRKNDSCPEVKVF
Description: as §1

[6] = molecular target: T3, hPEPT1 receptor domain (human PEPT1, …); assay: phage ELISA, plate coated with hPEPT1 domain
Description: as §1

B1: HAX40 (peptide)
peptide: REFAERRLWGCDDLSWRLDAEGCGPTPSNRAVKHRKPRPRSPALAETVESCLAKPHTENSFTNVWKDDKTLDRYANYEGCLWNATGVVVCTGDETQCYGTWVPIGLAIPENEGGGSEGGGSEGGGSEGGGTKPPEYGDTPIPGYTYINPLDGTYPPGTEQNPANPNPSLEESQPLNTFMFQNNRFRNRQGALTVYTGTVTQGTDPVKTYYQYTPVSSKAMYDAYWNGKFRDCAFHSGFNEDPFVCEYQGQSSDLPQPPVNAGGGSGGGSGGGSEGGGSEGGGSEGGGSEGGGSGGGSGSGDFDYEKMANANKGAMTENADENALQSDAKGKLDSVATDYGAAIDGFIGDVSGLANGNGATGDFAGSNSQMAQVGDGDNSPLMNNFRQYLPSLPQSVECRPFVFSAGKPYEFSIDCDKINLFRGVFAFLLYVATFMYVFSTFANILRNKES
notes: Assayed as M13 phage clone displaying the insert; also called H44
How did the OD [1] turn out when B1 was run?
The OD was 0.991 OD.

And the HPT/BSA [2]?
Its HPT/BSA is 15 ratio.

B2: DAX23 (peptide)
peptide: REWRFAGPPLDLWAGPSLPSFNASSHPRALRTYWSQRPRAETVESCLAKPHTENSFTNVWKDDKTLDRYANYEGCLWNATGVVVCTGDETQCYGTWVPIGLAIPENEGGGSEGGGSEGGGSEGGGTKPPEYGDTPIPGYTYINPLDGTYPPGTEQNPANPNPSLEESQPLNTFMFQNNRFRNRQGALTVYTGTVTQGTDPVKTYYQYTPVSSKAMYDAYWNGKFRDCAFHSGFNEDPFVCEYQGQSSDLPQPPVNAGGGSGGGSGGGSEGGGSEGGGSEGGGSEGGGSGGGSGSGDFDYEKMANANKGAMTENADENALQSDAKGKLDSVATDYGAAIDGFIGDVSGLANGNGATGDFAGSNSQMAQVGDGDNSPLMNNFRQYLPSLPQSVECRPFVFSAGKPYEFSIDCDKINLFRGVFAFLLYVATFMYVFSTFANILRNKES
notes: Assayed as M13 phage clone displaying the insert
What does the source list for B2?
OD [3]: 0.698 OD; D2H/BSA [4]: 5 ratio

B3: P31 (peptide)
peptide: SARDSGPAEDGSRAVRLNGVENANTRKSSRSNPRGRRHPAETVESCLAKPHTENSFTNVWKDDKTLDRYANYEGCLWNATGVVVCTGDETQCYGTWVPIGLAIPENEGGGSEGGGSEGGGSEGGGTKPPEYGDTPIPGYTYINPLDGTYPPGTEQNPANPNPSLEESQPLNTFMFQNNRFRNRQGALTVYTGTVTQGTDPVKTYYQYTPVSSKAMYDAYWNGKFRDCAFHSGFNEDPFVCEYQGQSSDLPQPPVNAGGGSGGGSGGGSEGGGSEGGGSEGGGSEGGGSGGGSGSGDFDYEKMANANKGAMTENADENALQSDAKGKLDSVATDYGAAIDGFIGDVSGLANGNGATGDFAGSNSQMAQVGDGDNSPLMNNFRQYLPSLPQSVECRPFVFSAGKPYEFSIDCDKINLFRGVFAFLLYVATFMYVFSTFANILRNKES
notes: as for B2
How did the PEPT1/BSA [5] turn out when B3 was run?
Its PEPT1/BSA is 11 ratio.

What about the OD [6] of the same binder?
The OD was 0.807 OD.

B4: HAX9 (peptide)
peptide: SREEANWDGYKREMSHRSRFWDATHLSRPRRPANSGDPNAETVESCLAKPHTENSFTNVWKDDKTLDRYANYEGCLWNATGVVVCTGDETQCYGTWVPIGLAIPENEGGGSEGGGSEGGGSEGGGTKPPEYGDTPIPGYTYINPLDGTYPPGTEQNPANPNPSLEESQPLNTFMFQNNRFRNRQGALTVYTGTVTQGTDPVKTYYQYTPVSSKAMYDAYWNGKFRDCAFHSGFNEDPFVCEYQGQSSDLPQPPVNAGGGSGGGSGGGSEGGGSEGGGSEGGGSEGGGSGGGSGSGDFDYEKMANANKGAMTENADENALQSDAKGKLDSVATDYGAAIDGFIGDVSGLANGNGATGDFAGSNSQMAQVGDGDNSPLMNNFRQYLPSLPQSVECRPFVFSAGKPYEFSIDCDKINLFRGVFAFLLYVATFMYVFSTFANILRNKES
notes: as for B2
What does the source list for B4?
OD [1]: 0.382 OD; HPT/BSA [2]: 5 ratio

B5: DAB10 (peptide)
peptide: SKSGEGGDSSRGETGWARVRSHAMTAGRFRWYNQLPSDRAETVESCLAKPHTENSFTNVWKDDKTLDRYANYEGCLWNATGVVVCTGDETQCYGTWVPIGLAIPENEGGGSEGGGSEGGGSEGGGTKPPEYGDTPIPGYTYINPLDGTYPPGTEQNPANPNPSLEESQPLNTFMFQNNRFRNRQGALTVYTGTVTQGTDPVKTYYQYTPVSSKAMYDAYWNGKFRDCAFHSGFNEDPFVCEYQGQSSDLPQPPVNAGGGSGGGSGGGSEGGGSEGGGSEGGGSEGGGSGGGSGSGDFDYEKMANANKGAMTENADENALQSDAKGKLDSVATDYGAAIDGFIGDVSGLANGNGATGDFAGSNSQMAQVGDGDNSPLMNNFRQYLPSLPQSVECRPFVFSAGKPYEFSIDCDKINLFRGVFAFLLYVATFMYVFSTFANILRNKES
notes: as for B2
With B5 as the binder, how does the OD [3] read?
The OD was 0.644 OD.

And the D2H/BSA [4]?
The D2H/BSA was 4 ratio.

B6: P90 (peptide)
peptide: SSADAEKCAGSLLWWGRQNNSGCGSPTKKHLKHRNRSQTSSSSHAETVESCLAKPHTENSFTNVWKDDKTLDRYANYEGCLWNATGVVVCTGDETQCYGTWVPIGLAIPENEGGGSEGGGSEGGGSEGGGTKPPEYGDTPIPGYTYINPLDGTYPPGTEQNPANPNPSLEESQPLNTFMFQNNRFRNRQGALTVYTGTVTQGTDPVKTYYQYTPVSSKAMYDAYWNGKFRDCAFHSGFNEDPFVCEYQGQSSDLPQPPVNAGGGSGGGSGGGSEGGGSEGGGSEGGGSEGGGSGGGSGSGDFDYEKMANANKGAMTENADENALQSDAKGKLDSVATDYGAAIDGFIGDVSGLANGNGATGDFAGSNSQMAQVGDGDNSPLMNNFRQYLPSLPQSVECRPFVFSAGKPYEFSIDCDKINLFRGVFAFLLYVATFMYVFSTFANILRNKES
notes: as for B2
Which PEPT1/BSA [5] does the source give for B6 here?
Its PEPT1/BSA is 9 ratio.

And the OD [6]?
The OD was 1.12 OD.

B7: 5PAX5 (peptide)
peptide: RGSTGTAGGERSGVLNLHTRDNASGSGFKPWYPSNRGHKAETVESCLAKPHTENSFTNVWKDDKTLDRYANYEGCLWNATGVVVCTGDETQCYGTWVPIGLAIPENEGGGSEGGGSEGGGSEGGGTKPPEYGDTPIPGYTYINPLDGTYPPGTEQNPANPNPSLEESQPLNTFMFQNNRFRNRQGALTVYTGTVTQGTDPVKTYYQYTPVSSKAMYDAYWNGKFRDCAFHSGFNEDPFVCEYQGQSSDLPQPPVNAGGGSGGGSGGGSEGGGSEGGGSEGGGSEGGGSGGGSGSGDFDYEKMANANKGAMTENADENALQSDAKGKLDSVATDYGAAIDGFIGDVSGLANGNGATGDFAGSNSQMAQVGDGDNSPLMNNFRQYLPSLPQSVECRPFVFSAGKPYEFSIDCDKINLFRGVFAFLLYVATFMYVFSTFANILRNKES
notes: as for B2
Which PEPT1/BSA [5] does the source give for B7 here?
The PEPT1/BSA was 4 ratio.

What about the OD [6] of the same binder?
The OD was 0.15 OD.

B8: HAX42 (peptide)
peptide: SDHALGTNLRSDNAKEPGDYNCCGNGNSTGRKVFNRRRPSAIPTAETVESCLAKPHTENSFTNVWKDDKTLDRYANYEGCLWNATGVVVCTGDETQCYGTWVPIGLAIPENEGGGSEGGGSEGGGSEGGGTKPPEYGDTPIPGYTYINPLDGTYPPGTEQNPANPNPSLEESQPLNTFMFQNNRFRNRQGALTVYTGTVTQGTDPVKTYYQYTPVSSKAMYDAYWNGKFRDCAFHSGFNEDPFVCEYQGQSSDLPQPPVNAGGGSGGGSGGGSEGGGSEGGGSEGGGSEGGGSGGGSGSGDFDYEKMANANKGAMTENADENALQSDAKGKLDSVATDYGAAIDGFIGDVSGLANGNGATGDFAGSNSQMAQVGDGDNSPLMNNFRQYLPSLPQSVECRPFVFSAGKPYEFSIDCDKINLFRGVFAFLLYVATFMYVFSTFANILRNKES
notes: as for B2
How did the OD [1] turn out when B8 was run?
Its OD is 0.32 OD.

What about the HPT/BSA [2] of the same binder?
Its HPT/BSA is 5 ratio.
